{"source": "patent US20240228595A1", "about": "(YALE UNIVERSITY, published 2024)", "binders": {"B1": {"name": "CoV2-0213 (bispecific antibody, human IgG1, kappa)", "heavy 1": "not shown", "light 1": "DIQMTQSPSSLSASVGDRVTITCRASESVEYYGTSLMQWYQQKPGKAPKLLIYAASNVESGVPARFSGSGSGTDFTLTISSLQPEDFATYYCQQSRKVPWTFGQGTKVEIKRSSASTKGPSVFPLAPSSKSTSGGTAALGCLVKDYFPEPVTVSWNSGALTSGVHTFPAVLQSSGLYSLSSVVTVPSSSLGTQTYICNVNHKPSNTKVDKKVEPKSC", "heavy 2": "not shown", "light 2": "not shown"}, "B2": {"name": "Clone 2 (antibody, V domains shown)", "VH": "EVQLQQSGPELVKPGASVKISCKASGYSFTGYSMNWMKQSPEKSLEWIGEINPSTGGTTDNQKFKAKATLTVDKSSSTAYMQLKSLTSEDSAVYYCARSRGDYWGQGTSVTVSS", "VL": "DIVLTQSPASLAVSLGQRATISCRASESVEYYGTSLMQWYQQKPGQPPKVLIYAASNVESGVPARFSGSGSGTDFSLNIHPVEEDDIAMYFCQQSRKVPWTFGGGTKLEIKR"}, "B3": {"name": "MB.08 (antibody, V domains shown)", "VH": "QVQLQESGPGLVKPSETLSLTCTVSGGSISSYYWSWIRQPPGKGLEWIGYIYYSGSTNYNPSLKSRVTISVDTSKNQFSLKLSSVTAADTAVYYCARGLTGGDAFDIWGQGTMVTVSS", "VL": "not shown"}}, "key": {"[1]": {"biological_target": "SARS-COV-2 Omicron BA.2 spike on HIV-1 based pseudovirus (SARS-CoV-2 Omicron BA.2, UniProt P0DTC2 14-1273)", "assay": "cell-based or functional assay"}, "[2]": {"biological_target": "SARS-COV-2 Omicron BA.1.1 spike on HIV-1 based pseudovirus (SARS-CoV-2 Omicron BA.1.1, UniProt P0DTC2 14-1273)", "assay": "cell-based or functional assay"}, "[3]": {"biological_target": "SARS-COV-2 Omicron BA.1 spike on HIV-1 based pseudovirus (Example 3) (SARS-CoV-2 Omicron BA.1, UniProt P0DTC2 14-1273)", "assay": "cell-based or functional assay"}, "[4]": {"biological_target": "SARS-COV-2 Omicron (B.1.1.529) full length spike on HIV-1 based pseudovirus (Example 2) (SARS-CoV-2 Omicron, UniProt P0DTC2 14-1273)", "assay": "cell-based or functional assay"}, "[5]": {"biological_target": "T1, SARS-COV-2 Omicron RBD recombinant protein (Sino Biological 40592-V08H121) (SARS-CoV-2 Omicron BA.1, UniProt P0DTC2 319-541)"}, "[6]": {"biological_target": "T1, SARS-COV-2 Omicron RBD recombinant …", "remark": "listed apart in the source"}, "[7]": {"biological_target": "T1, SARS-COV-2 Omicron RBD recombinant …", "remark": "listed apart in the source"}, "[8]": {"biological_target": "T1, SARS-COV-2 Omicron RBD recombinant …", "remark": "listed apart in the source"}, "[9]": {"biological_target": "T1, SARS-COV-2 Omicron RBD recombinant …", "remark": "listed apart in the source"}, "[10]": {"biological_target": "T1, SARS-COV-2 Omicron RBD recombinant …", "assay": "BLI (Octet); by the text the format with mAb immobilised and soluble Omicron RBD"}, "[11]": {"biological_target": "T1, SARS-COV-2 Omicron RBD recombinant …", "assay": "ELISA, SARS-CoV-2-Omicron BA.1 RBD coated, antibody titrated"}, "[12]": {"biological_target": "T1, SARS-COV-2 Omicron RBD recombinant …", "remark": "listed apart in the source"}}, "note": "Like-named read-outs stand apart in the source and are kept apart here.", "data": [{"binder": "B1", "values": [{"measurement": "pseudovirus neutralization, IC50", "setting": "[1]", "result": 0.078, "unit": "µg/mL"}, {"measurement": "pseudovirus neutralization, fold more effective than S309/Sotrovimab", "setting": "[1]", "result": "~78", "unit": "fold"}, {"measurement": "pseudovirus neutralization, IC50", "setting": "[2]", "result": 0.062, "unit": "µg/mL"}, {"measurement": "pseudovirus neutralization, IC50", "setting": "[3]", "result": 0.044, "unit": "µg/mL"}]}, {"binder": "B2", "values": [{"measurement": "pseudovirus neutralization, IC50", "setting": "[4]", "result": 0.396, "unit": "µg/mL"}]}, {"binder": "B3", "values": [{"measurement": "EC50", "setting": "[5]", "result": 0.0122, "unit": "µg/mL"}, {"measurement": "EC50 (read off the curve)", "setting": "[6]", "result": "~0.2", "unit": "µg/mL"}, {"measurement": "koff", "setting": "[7]", "result": "< 1e-07", "unit": "s⁻¹"}, {"measurement": "kon", "setting": "[7]", "result": 172000, "unit": "M⁻¹ s⁻¹"}, {"measurement": "koff", "setting": "[8]", "result": 0.00536, "unit": "s⁻¹"}, {"measurement": "kon", "setting": "[8]", "result": 418000, "unit": "M⁻¹ s⁻¹"}, {"measurement": "Kd", "setting": "[9]", "result": "< 0.001", "unit": "nM"}, {"measurement": "Kd", "setting": "[10]", "result": 7.16, "unit": "nM"}, {"measurement": "EC50", "setting": "[11]", "result": 0.0014, "unit": "µg/mL"}, {"measurement": "koff", "setting": "[12]", "result": 0.00536, "unit": "s⁻¹"}, {"measurement": "kon", "setting": "[12]", "result": 418000, "unit": "M⁻¹ s⁻¹"}]}]}
